Results on one molecule are retold here after patent US11312773B2, “Anti-PD-L1 antibody” (Fuso Pharmaceutical Industries, Ltd., priority 2016, dated 2022).

Experiment [1] concerns the target T1, canine PD-1/PD-L1 binding (Canis lupus familiaris, UniProt A0A8I3P7C4).
T1 construct: made in house; host or cells: Expi293F
T1 sequence (A0A8I3P7C4 19-237): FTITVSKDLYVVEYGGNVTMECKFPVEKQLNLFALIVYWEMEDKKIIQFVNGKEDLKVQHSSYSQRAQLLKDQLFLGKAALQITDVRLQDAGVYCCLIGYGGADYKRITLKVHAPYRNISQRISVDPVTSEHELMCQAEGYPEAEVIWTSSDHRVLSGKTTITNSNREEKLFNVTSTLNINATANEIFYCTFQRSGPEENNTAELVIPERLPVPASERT
The experiment is described as follows: Canine PD-1/PD-L1 binding inhibition ELISA (cPD-1-Ig immobilized, biotinylated cPD-L1-Ig). To be noted: antibody 0, 2.5, 5 and 10 μg/ml. The method, then: Briefly, canine PD-1-Ig (prepared in 2.4 above) was immobilized on flat bottomed 96-well plates and blocked with 1% BSA and 0.05% Tween 20-containing PBS. […] The binding of cPD-L1-Ig to cPD-1-Ig was measured by color reaction using Neutravidin-HRP (Thermo Fisher Scientific) and TMB one component substrate (Bethyl Laboratories).
Briefly, heavy chain and light chain variable region genes were identified from hybridomas producing rat anti-bovine PD-L1 monoclonal antibodies 4G12 and 6G7. Further, the heavy chain and light chain variable region genes of the above rat antibodies were linked to the constant region of heavy chain IgG4 and the constant region of light chain Lambda of a known canine antibody, respectively, to prepare nucleotide sequences, followed by codon optimization (SEQ ID NOS: 9 and 10 (amino acid sequences), SEQ ID NOS: 19 and 20 (nucleotide sequences after codon optimization). Then, synthesis of genes was performed so that NotI restriction enzyme recognition site. KOZAK sequence, chimeric antibody's light chain sequence, poly-A addition signal sequence (PABGH), promoter sequence (PCMV), SacI restriction enzyme recognition site, intron sequence (INRBG), KOZAK sequence, chimeric antibody's heavy chain sequence and XbaI restriction enzyme recognition site would be located in this order. […]
(ELISA stands for enzyme-linked immunosorbent assay.)

Experiment [2] has as its system canine CD80/PD-L1 binding. Nature of the experiment: Canine CD80/PD-L1 binding inhibition ELISA (cCD80-Ig immobilized, cPD-L1-Ig). To be noted: antibody 0, 2.5, 5 and 10 μg/ml. The method, then: Using the canine PD-1-Ig, PD-L1-Ig and CD80-Ig (described above), anti-PD-L1 antibody was tested for its ability to inhibit canine PD-1/PD-L1 binding and CD80/PD-L1 binding. Briefly, canine PD-1-Ig or CD80-Ig was immobilized on flat-bottom 96-well plates.

Experiment [3] concerns ovine PD-L1. The experiment is described as follows: Flow cytometry reactivity with ovine PD-L1-EGFP expressing COS-7 cells. The class given is binding. To be noted: 10 μg/ml. The method, then: (§1) COS-7 cells were subcultured at a density of 5×10^4 cells/cm^2 in 6-well plates, and then cultured overnight in RPMI 1640 medium containing 10% inactivated fetal bovine serum and 0.01% L-glutamine at 37° C. in the presence of 5% CO2. The pEGFP-N2-ovPD-1, pEGFP-N2-ovPD-L1, pEGFP-N2-poPD-1, pEGFP-N2-poPD-L1 or pEGFP-N2 (negative control) was introduced into COS-7 cells at 0.4 μg/cm^2 using Lipofectamine 2000 (Invitrogen). The cells were cultured for 48 hours (ovPD-1-EGFP expressing cell, ovPD-L1-EGFP expressing cell, poPD-1-EGFP expressing cell, and poPD-L1-EGFP expressing cell). In order to confirm the expression of ovine PD-1, ovine PD-L1, porcine PD-1 and porcine PD-L1 in the thus prepared expressing cells, intracellular localization of EGFP was visualized with an inverted confocal laser microscope LSM700 (ZEISS) or an all-in-one fluorescence microscope BZ-9000 (KEYENCE). It was confirmed by flow cytometry that rat anti-bovine PD-L1 monoclonal antibody cross-reacts with ovine and porcine PD-LL. […] After washing, the cells were reacted with allophycocyanine-labeled anti-rat Ig goat antibody (Beckman Coulter) at room temperature for 30 min. For analysis, FACS Verse (BD Bioscience) was used. As a negative control antibody, rat IgG2a (κ) isotype control (BD Bioscience) was used. For every washing operation and dilution of antibodies, 1% bovine serum albumin supplemented PBS was used.
Background: Flow cytometry measures light scatter and fluorescence of single cells or particles in a stream.

The subject of experiment [4] is porcine PD-L1. Nature of the experiment: Flow cytometry reactivity with porcine PD-L1-EGFP expressing COS-7 cells. The class given is binding. To be noted: 10 μg/ml. The method, then: as §1
In experiment [5] the test system is ovine PD-1/PD-L1 binding. Nature of the experiment: Ovine PD-1/PD-L1 binding inhibition test (PD-1-EGFP COS-7 cells and PD-L1-Ig). To be noted: antibody 0-50 μg/ml, ovine PD-L1-Ig 1 μg/ml. The method, then:
(§2) Using ovine PD-1-EGFP expressing COS-7 cells and ovine PD-L1-Ig recombinant protein, or porcine PD-1-EGFP expressing COS-7 cells and porcine PD-L1-Ig recombinant protein, inhibition of ovine or porcine PD-1/PD-L1 binding by rat anti-bovine PD-L1 antibody […] was tested. […] Subsequently, the antibody 4G12 was reacted with 2×10^5 ovine PD-1-EGFP expressing COS-7 cells or porcine PD-1-EGFP expressing COS-7 cells at 37° C. for 30 min. After washing, ovine PD-L1-Ig or porcine PD-L1-Ig bound to cell surfaces was detected with Alexa Fluor 647-labeled anti-rabbit IgG (H+L) goat F(ab′)2 (Life Technologies). For analysis, FACS Verse (BD Biosciences) was used. As a negative control antibody, rat IgG2a (κ) isotype control (BD Biosciences) was used. Taking the proportion of PD-L1-Ig bound cells without antibody addition as 100%, the proportion of PD-L1-Ig bound cells at each antibody concentration was shown as relative value.

Experiment [6] concerns porcine PD-1/PD-L1 binding. The experiment is described as follows: Porcine PD-1/PD-L1 binding inhibition test (PD-1-EGFP COS-7 cells and PD-L1-Ig). To be noted: antibody 0-50 μg/ml, porcine PD-L1-Ig 5 μg/ml. On the procedure:
as §2

Experiment [7] concerns PBMCs of BLV-infected cattle. Nature of the experiment: Biological activity test: IFN-γ production of PBMCs of BLV-infected cattle to BLV antigen. Conditions: 10 μg/ml antibody, 2% FLK-BLV supernatant, 6 days, n=10.

B1: 4G12: rat anti-bovine PD-L1 monoclonal antibody; VL SEQ ID NO: 1, VH SEQ ID NO: 2 (antibody, listed as Rattus norvegicus, V domains shown)
VH: MGWSQIILFLVAAATCVHSQVQLQQSGAELVKPGSSVKISCKASGYTFTSNFMHWVKQQPGNGLEWIGWIYPEYGNTKYNQKFDGKATLTADKSSSTAYMQLSSLTSEDSAVYFCASEEAVISLVYWGQGTLVTVSS
VL: MESQTHVLISLLLSVSGTYGDIAITQSPSSVAVSVGETVTLSCKSSQSLLYSENQKDYLGWYQQKPGQTPKPLIYWATNRHTGVPDRFTGSGSGTDFTLIISSVQAEDLADYYCGQYLVYPFTFGPGTKLELK
As for B1, in experiment [1], the “Inhibitory activity against canine PD-1/PD-L1 binding” value was “reduced the amounts of binding”. Besides, the “Inhibitory activity against canine CD80/PD-L1 binding” value in experiment [2] is given as “reduced the amounts of binding”. Also, the “Binding to ovine PD-L1” value in experiment [3] is “binds to ovine and porcine PD-L1”. The “Binding to porcine PD-L1” value in experiment [4] is “binds to ovine and porcine PD-L1”. In addition, the “Inhibition of ovine PD-1/PD-L1 binding” value in experiment [5] is listed as “capable of inhibiting”. Besides, the “Inhibition of porcine PD-1/PD-L1 binding” value in experiment [6] is listed as “capable of inhibiting”. Also, the “IFN-γ response of bovine PBMCs to BLV antigen” value in experiment [7] is “increases”.
